What all share (assay): filter binding
The target in series [1] is T1, MBNL3 (human, UniProt Q9NUK0 1-257).
T1 sequence: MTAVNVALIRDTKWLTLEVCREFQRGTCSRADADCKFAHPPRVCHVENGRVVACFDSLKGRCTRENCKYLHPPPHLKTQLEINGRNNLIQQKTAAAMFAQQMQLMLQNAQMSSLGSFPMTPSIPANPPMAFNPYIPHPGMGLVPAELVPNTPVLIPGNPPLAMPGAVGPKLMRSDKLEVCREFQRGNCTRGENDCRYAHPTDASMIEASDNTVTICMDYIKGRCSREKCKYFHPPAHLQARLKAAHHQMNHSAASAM

The target of series [2] is T2, MBNL2 (human, UniProt Q5VZF2 1-268).
T2 sequence: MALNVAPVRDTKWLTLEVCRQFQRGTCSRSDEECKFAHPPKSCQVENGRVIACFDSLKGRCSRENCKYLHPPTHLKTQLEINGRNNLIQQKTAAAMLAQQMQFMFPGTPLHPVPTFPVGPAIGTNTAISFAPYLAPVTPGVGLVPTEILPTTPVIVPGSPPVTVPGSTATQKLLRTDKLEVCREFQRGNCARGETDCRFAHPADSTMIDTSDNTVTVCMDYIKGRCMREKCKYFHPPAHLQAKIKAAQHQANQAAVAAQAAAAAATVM

Series [3] addresses T3, MBNL1 (UniProt Q9NR56 1-260).
T3 sequence: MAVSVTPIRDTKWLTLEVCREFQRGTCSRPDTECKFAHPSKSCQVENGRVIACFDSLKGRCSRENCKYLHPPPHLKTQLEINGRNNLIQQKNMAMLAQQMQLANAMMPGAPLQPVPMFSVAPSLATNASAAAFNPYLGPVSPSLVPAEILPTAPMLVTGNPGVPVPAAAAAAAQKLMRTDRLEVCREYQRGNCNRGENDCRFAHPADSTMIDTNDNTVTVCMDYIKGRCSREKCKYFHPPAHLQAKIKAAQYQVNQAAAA

The target in series [4] is T1, MBNL3. The source holds these as a separate data set.
The target of series [5] is T2, MBNL2. The source holds these as a separate data set.
In series [6] the target is T3, MBNL1. The source holds these as a separate data set.

B1: Atp2a1 intron 22 RNA (145 nt) (structured_RNA)
RNA: GGGCACCCCUGCGGUCACUUGCGCGCGCUCGCAGCUCUCCCUGGAGCCACUGCUGCUGUUGCCACUGCCCGCUUCCACAUGAGGGCCAUGCCGUUACUGUGGGCACUGGCAGCUGUGAGGCUGUGUCCUGGCCGUCCAGUCUGCU
Regarding B1, the binding result with MBNL3 [1], with MBNL2 [2] and with MBNL1 [3] was “binds” in each case.

B2: (CUG)20 (structured_RNA)
RNA: CUGCUGCUGCUGCUGCUGCUGCUGCUGCUGCUGCUGCUGCUGCUGCUGCUGCUGCUGCUG
For the molecule B2, the Kd with MBNL3 [4], with MBNL2 [5] and in the series with MBNL1 [6] was approximately 7.75 nM throughout.
